The text below walks through data of article PMC11506057, “Identification of Podoplanin Aptamers by SELEX for Protein Detection and Inhibition of Platelet Aggregation Stimulated by C-Type Lectin-like Receptor 2”.

The data set concerns the target T1, podoplanin (PDPN), recombinant PDPN-His-Fc (UniProt Q86YL7 23-131).
T1 sequence: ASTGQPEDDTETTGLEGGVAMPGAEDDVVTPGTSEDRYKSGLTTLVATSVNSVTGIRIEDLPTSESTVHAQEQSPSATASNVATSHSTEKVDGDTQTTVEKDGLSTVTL
In words: BLI; BLI and dot blot: binding buffer B, 1x PBS, 5 mM MgCl2, 0.1% BSA, 0.01% yeast tRNA (BLI baseline in buffer A: 1x PBS, 5 mM MgCl2, 2 mM CaCl2, 1 mg/mL BSA, 0.1 mg/mL salmon sperm DNA); temperature and pH not given; flow cytometry at 4 C. As to conditions: protein: commercial, tags: His.

Where [1] appears, read: chain copies: 2, label: biotin, parallel G-quadruplex (CD), stem-loop predicted.
Setting [2] is: chain copies: 2, label: biotin, antiparallel G-quadruplex or B-DNA (CD).

B1: A77 (structured_DNA)
DNA: ATCCAGAGTGACGCAGCATGGGGGGAGAGTGTGGTCTGGCTTGGTGGGGTCTGGGGGCTGGACACGGTGGCTTAGT
For B1, under setting [1], the Kd was 1.7 nM.

B2: A289 (structured_DNA)
DNA: ATCCAGAGTGACGCAGCACGGGTTTGGCGCCGGGCCTGGCGGGTGTAGCGTTTTTGGGTGGACACGGTGGCTTAGT
As to B2, the Kd under setting [2] was determined as 0.5 nM.

B3: A5 (structured_DNA)
DNA: ATCCAGAGTGACGCAGCATGCCAAAGGGTCTGCTCGGGATTGCGGAGAGGGCTTGGGGTGGACACGGTGGCTTAGT
Regarding B3, the Kd under setting [1] is 0.2 nM.

B4: A1498 (structured_DNA)
DNA: ATCCAGAGTGACGCAGCATGCAGGGTTTGGCTTCGGGCCTGGCGGAGAGAGCGTGAGGTGGACACGGTGGCTTAGT
For B4, the Kd under setting [2] was determined as 0.4 nM.

B5: A6 (structured_DNA)
DNA: ATCCAGAGTGACGCAGCACACCGAGGGGACTGCTCGGGATTGCGGATGAGGTAGCAAGTGGACACGGTGGCTTAGT
Consider B5, for which the Kd under setting [1] was 0.2 nM.

B6: A1 (structured_DNA)
DNA: ATCCAGAGTGACGCAGCATCACTAGTGCGCCAGGGGGACTGCTCGGGATTGCGGATACTGGACACGGTGGCTTAGT
For the molecule B6, for the setting “chain copies: 2, label: biotin (BLI, dot blot, Western blot), FAM (flow cytometry), parallel G-quadruplex (CD), stem-loop predicted”, the Kd is 1.3 nM.
